In paper PMC5388898 (Biomacromolecules, 2017):

Target: epidermal growth factor receptor (EGFR) on A431 cells (Homo sapiens, endogenous on A431 cells, UniProt P00533)
Assay: flow cytometry on cells

B1: Fc5^FL-ELP^DB (VHH)
VHH: EVQLQASGGGLVQAGGSLRLSCAASGFKITHYTMGWFRQAPGKEREFVSRITWGGDNTFYSNSVKGRFTISRDNAKNTVYLQMNSLKPEDTADYYCAAGSTSTATPLRVDYWGKGTQVTVSS
B1: no binding (tested: 1 μM).
